First the molecules themselves.
T1: ETR1 1-157 (Arabidopsis thaliana)
T1 chain: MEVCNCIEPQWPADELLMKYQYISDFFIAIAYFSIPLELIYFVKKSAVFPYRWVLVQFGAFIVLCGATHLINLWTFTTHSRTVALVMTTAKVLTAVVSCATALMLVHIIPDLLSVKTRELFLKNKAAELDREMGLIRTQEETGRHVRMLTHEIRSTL

T2: ETR1 1-598 (Arabidopsis thaliana)
T2 chain: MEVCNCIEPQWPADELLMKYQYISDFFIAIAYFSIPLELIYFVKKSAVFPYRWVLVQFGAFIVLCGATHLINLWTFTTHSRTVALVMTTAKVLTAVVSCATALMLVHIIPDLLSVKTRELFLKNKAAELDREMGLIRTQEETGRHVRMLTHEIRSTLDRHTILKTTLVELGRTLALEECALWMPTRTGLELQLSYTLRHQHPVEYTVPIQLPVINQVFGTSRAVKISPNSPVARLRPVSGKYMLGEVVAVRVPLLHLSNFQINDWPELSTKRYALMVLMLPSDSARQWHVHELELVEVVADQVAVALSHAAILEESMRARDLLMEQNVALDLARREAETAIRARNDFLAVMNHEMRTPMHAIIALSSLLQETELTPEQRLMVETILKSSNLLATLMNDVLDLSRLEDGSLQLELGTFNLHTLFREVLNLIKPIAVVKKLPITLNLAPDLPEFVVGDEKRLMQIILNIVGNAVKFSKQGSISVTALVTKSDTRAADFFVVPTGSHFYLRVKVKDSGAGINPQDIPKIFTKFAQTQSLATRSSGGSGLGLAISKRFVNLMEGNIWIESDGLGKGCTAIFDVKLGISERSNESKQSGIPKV

T3: ETR1 1-307 (Arabidopsis thaliana)
T3 chain: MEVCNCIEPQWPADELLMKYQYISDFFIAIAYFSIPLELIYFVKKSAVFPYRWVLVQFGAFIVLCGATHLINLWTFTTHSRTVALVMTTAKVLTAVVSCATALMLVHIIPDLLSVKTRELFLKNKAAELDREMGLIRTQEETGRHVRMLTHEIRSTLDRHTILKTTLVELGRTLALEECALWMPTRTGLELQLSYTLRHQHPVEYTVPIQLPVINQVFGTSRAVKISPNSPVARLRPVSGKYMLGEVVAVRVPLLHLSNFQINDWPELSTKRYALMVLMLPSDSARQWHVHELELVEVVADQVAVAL

T4: ETR1 1-407 (Arabidopsis thaliana)
T4 chain: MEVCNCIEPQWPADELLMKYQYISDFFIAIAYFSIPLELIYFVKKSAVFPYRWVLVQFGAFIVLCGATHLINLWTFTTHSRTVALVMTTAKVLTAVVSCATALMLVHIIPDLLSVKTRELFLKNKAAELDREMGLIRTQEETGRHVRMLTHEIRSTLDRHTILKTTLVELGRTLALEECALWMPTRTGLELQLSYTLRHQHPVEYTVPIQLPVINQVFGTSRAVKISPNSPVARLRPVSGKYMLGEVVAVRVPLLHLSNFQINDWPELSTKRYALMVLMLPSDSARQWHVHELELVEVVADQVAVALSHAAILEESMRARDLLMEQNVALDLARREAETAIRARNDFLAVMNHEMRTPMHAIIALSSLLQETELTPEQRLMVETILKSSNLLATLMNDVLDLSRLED

B1: synthetic full-length POLARIS (PLS) peptide, PLS(FL) (peptide)
peptide: MKPRLCFNFRRRSISPCYISISYLLVAKLFKLFKIH
modifications: cysteine pairing not given here; also: fluorescently labelled
B2: PLS linked to a C-terminal GFP (PLS:GFP), pro35S::PLS:GFP (peptide, UniProt Q8LLV8 1-36, looked up)
chain: MKPRLCFNFRRRSISPCYISISYLLVAKLFKLFKIH-{GFP}
modifications: cysteine pairing not given here
notes: POLARIS (PLS) peptide of Arabidopsis thaliana, gene AT4G39403; the PLS gene without the stop codon (printed as 105 bp) in pEarlyGate103; source: N. benthamiana leaves, transient expression by Agrobacterium infiltration, in protein extract; not shown: GFP, C-terminal, kept
B3: ETR1 with a C-terminal HA tag (ETR1:HA), pro35S::ETR1:HA (receptor, Arabidopsis, UniProt P49333 1-738, looked up)
chain: MEVCNCIEPQWPADELLMKYQYISDFFIAIAYFSIPLELIYFVKKSAVFPYRWVLVQFGAFIVLCGATHLINLWTFTTHSRTVALVMTTAKVLTAVVSCATALMLVHIIPDLLSVKTRELFLKNKAAELDREMGLIRTQEETGRHVRMLTHEIRSTLDRHTILKTTLVELGRTLALEECALWMPTRTGLELQLSYTLRHQHPVEYTVPIQLPVINQVFGTSRAVKISPNSPVARLRPVSGKYMLGEVVAVRVPLLHLSNFQINDWPELSTKRYALMVLMLPSDSARQWHVHELELVEVVADQVAVALSHAAILEESMRARDLLMEQNVALDLARREAETAIRARNDFLAVMNHEMRTPMHAIIALSSLLQETELTPEQRLMVETILKSSNLLATLMNDVLDLSRLEDGSLQLELGTFNLHTLFREVLNLIKPIAVVKKLPITLNLAPDLPEFVVGDEKRLMQIILNIVGNAVKFSKQGSISVTALVTKSDTRAADFFVVPTGSHFYLRVKVKDSGAGINPQDIPKIFTKFAQTQSLATRSSGGSGLGLAISKRFVNLMEGNIWIESDGLGKGCTAIFDVKLGISERSNESKQSGIPKVPAIPRHSNFTGLKVLVMDENGVSRMVTKGLLVHLGCEVTTVSSNEECLRVVSHEHKVVFMDVCMPGVENYQIALRIHEKFTKQRHQRPLLVALSGNTDKSTKEKCMSFGLDGVLLKPVSLDNIRDVLSDLLEPRVLYEGM
notes: the ETR1 cDNA in pEarlyGate301; also called ETHYLENE RESPONSE 1; source: N. benthamiana leaves, transient expression by Agrobacterium infiltration, in protein extract; not shown: HA, C-terminal, kept

Ends that are not written are not given here.

In test [1] the test system is pPLS::PLS:GFP. Put plainly: PLS:GFP fluorescence in root tip after ACC treatment. Type of test: in vivo, Arabidopsis. The conditions noted are these: 0, 1 or 10 μM ACC, 2 or 24 hours, n = 17. The text has this:
Figur e S15. The link between auxin and ethylene signalling effects on PLS transcription, and downstr eam effects on […]
in the root tip after ACC treatment. […]
Laser settings were mai nt ai ned at 21% 488 nm 20 mW, 970 V gain.
Images are representative of 10 independetly grown roots. Scale bars […]
Lower panel: Quanti fi cati on of PLS-GFP fluorescence after ACC treatment, detected in seedlings expressing the pPLS::PLS:GFP construct. Seedling root tips at seven d.a.g were imaged by CLSM after treatment with 0, 1 or 10 μM ACC for either 2 or 24 hours.
Fl uorescence intensity in each root was measured using ImageJ and the mean intensity for each treatment was calculated. Error bars show
± 1 standard error, n = 17.

Test [2] relates to pPLS::GUS. The test is described as follows: pPLS::GUS expression in root tips after hormone treatment. Type of test: in vivo, Arabidopsis. To be noted: 10 µM ACC plus 10 μM 2,4-D. The text has this: Figure S15. The link between auxi n and et hyl ene si gnal l i ng ef f ect s on PLS transcription, and downstream ef f ect s on et hyl ene responses.
(A) Ant agoni sm between auxi n and et hyl ene on PLS expressi on.
Auxin posit ively regulates PLS gene transcription, whi l e ACC (ethylene pr ecur sor ) […]
Lef t upper panel: pPLS::GUS […]
expr ession in the Arabidopsis root tip under standard gr owt h conditions. Lef t lower panel: pPLS::PLS:GFP expr ession in the Arabidopsis root tip under standard gr owt h conditions.
Ri ght panel: pPLS::GUS expr ession in root tips treated wi t h 10 μM 2,4-D, showing ect opic […]
10 μM 2,4-D plus 10 μm ACC, showing the ant agonism of the inductive eff ect of 2,4-D on PLS::GUS expr ession. Images ar e representative of 10 independently gr own roots. […]

For test [3], the target named is T1, ETR1 1-157. Put plainly: MST.
Test [4] has as its target T2, ETR1 1-598. Put plainly: MST.
Test [5] has as its target T3, ETR1 1-307. The test is described as follows: MST.
The target in test [6] is T4, ETR1 1-407. Put plainly: MST.
For test [7], the target named is B3. The test is described as follows: co-IP; anti-HA beads on protein extract of N. benthamiana leaves co-expressing ETR1:HA and PLS:GFP or GFP, 3 days after infiltration; blot with anti-GFP; with 0.5 μM CuSO4 or 2 mM EDTA added to the extract. To be noted: partners not purified.
In test [8] the target is B2. Put plainly: co-IP; anti-GFP beads on protein extract of N. benthamiana leaves co-expressing PLS:GFP and ETR1:HA; blot with anti-HA; with or without EDTA. The conditions noted are these: partners not purified.

The term Kd denotes the equilibrium constant for the complex coming apart. The low end stands for a tighter complex, the high end for a looser complex.

Regarding `NC1(C(=O)O)CC1` [ACC, 1-aminocyclopropane-1-carboxylic acid], the “expression of PLS:GFP in root tip” value in test [1] is “downr egulated”. Moreover, in test [2], the “effect on auxin-induced PLS expression” value is recorded as “ant agonizes the inductive eff ect s of auxin”.
For B1, the equilibrium dissociation constant (Kd) in test [3] is 1520 nM; in test [4] it was 2920 nM; in test [5], 1780 nM; in test [6] it was 1650 nM.
Turning to B2, the “fold co-precipitated with 0.5 μM copper sulfate against 2 mM EDTA” value in test [7] was about 3 fold.
As to B3, in test [8], the “fold co-precipitated with 0.5 μM copper sulfate against 2 mM EDTA” value was about 3 fold.

These data come from paper PMC12744750 (Plant Communications, 2025).
